Values of other authors as cited in patent US6294648A, “Protein having proteinase inhibitor activity” (Bayer Corporation, priority 1999, dated 2001).
Read-outs that look alike come from different tables or passages of the source. One block for each molecule: values may come before it.

What was measured:
[1] = biological target: T1, proteinase 3 (Homo sapiens, UniProt P24158)
T1 sequence (P24158 28-256): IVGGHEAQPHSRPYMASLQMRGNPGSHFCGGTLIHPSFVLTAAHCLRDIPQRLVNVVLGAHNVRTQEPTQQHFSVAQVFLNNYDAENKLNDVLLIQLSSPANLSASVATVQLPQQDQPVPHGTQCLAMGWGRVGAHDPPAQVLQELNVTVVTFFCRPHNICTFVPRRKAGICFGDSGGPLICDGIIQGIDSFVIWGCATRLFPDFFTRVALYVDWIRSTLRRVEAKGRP

[2] = biological target: T2, cathepsin G (Homo sapiens, UniProt P08311)
T2 sequence (P08311 21-255): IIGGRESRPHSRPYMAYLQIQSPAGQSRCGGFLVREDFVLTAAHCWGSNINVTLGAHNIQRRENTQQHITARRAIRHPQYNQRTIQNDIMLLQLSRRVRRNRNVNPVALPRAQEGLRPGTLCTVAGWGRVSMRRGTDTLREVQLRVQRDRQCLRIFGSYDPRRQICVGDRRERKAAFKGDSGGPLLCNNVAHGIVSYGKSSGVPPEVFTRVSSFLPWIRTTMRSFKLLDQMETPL

[3] = biological target: T3, leukocyte elastase (Homo sapiens, UniProt P08246)
T3 sequence (P08246 30-267): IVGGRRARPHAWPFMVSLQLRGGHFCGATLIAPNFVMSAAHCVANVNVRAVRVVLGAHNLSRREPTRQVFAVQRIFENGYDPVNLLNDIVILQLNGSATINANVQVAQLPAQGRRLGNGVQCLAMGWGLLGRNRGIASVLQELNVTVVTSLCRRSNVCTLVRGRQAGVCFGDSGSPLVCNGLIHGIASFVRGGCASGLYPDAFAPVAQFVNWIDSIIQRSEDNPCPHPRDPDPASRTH

[4] = test system: leukocyte elastase-induced emphysema; details: hamsters
[5] = test system: activated neutrophils
[6] = test system: chymotrypsin
[7] = biological target: T4, trypsin (Bos taurus, UniProt P00760)
T4 construct: gene PRSS1
T4 sequence (P00760 24-246): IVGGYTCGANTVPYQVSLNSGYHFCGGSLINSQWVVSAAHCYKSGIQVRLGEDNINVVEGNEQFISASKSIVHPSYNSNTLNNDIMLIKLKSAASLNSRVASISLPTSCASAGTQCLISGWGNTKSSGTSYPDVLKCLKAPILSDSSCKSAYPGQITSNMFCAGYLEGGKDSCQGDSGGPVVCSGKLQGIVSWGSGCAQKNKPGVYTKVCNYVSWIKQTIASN

[8] = test system: neutrophil-induced ECM solubilization
[9] = biological target: plasmin (Homo sapiens, UniProt P00747)
plasmin, sequence (P00747 581-810 limits assumed, species assumed): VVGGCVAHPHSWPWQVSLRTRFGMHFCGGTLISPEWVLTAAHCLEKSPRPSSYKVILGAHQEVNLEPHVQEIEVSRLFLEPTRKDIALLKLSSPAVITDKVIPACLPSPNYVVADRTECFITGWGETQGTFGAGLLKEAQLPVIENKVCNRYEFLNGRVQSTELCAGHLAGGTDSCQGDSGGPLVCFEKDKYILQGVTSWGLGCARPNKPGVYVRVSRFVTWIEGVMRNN
plasmin, sequence (P00747 97-580 partner limits assumed, species assumed): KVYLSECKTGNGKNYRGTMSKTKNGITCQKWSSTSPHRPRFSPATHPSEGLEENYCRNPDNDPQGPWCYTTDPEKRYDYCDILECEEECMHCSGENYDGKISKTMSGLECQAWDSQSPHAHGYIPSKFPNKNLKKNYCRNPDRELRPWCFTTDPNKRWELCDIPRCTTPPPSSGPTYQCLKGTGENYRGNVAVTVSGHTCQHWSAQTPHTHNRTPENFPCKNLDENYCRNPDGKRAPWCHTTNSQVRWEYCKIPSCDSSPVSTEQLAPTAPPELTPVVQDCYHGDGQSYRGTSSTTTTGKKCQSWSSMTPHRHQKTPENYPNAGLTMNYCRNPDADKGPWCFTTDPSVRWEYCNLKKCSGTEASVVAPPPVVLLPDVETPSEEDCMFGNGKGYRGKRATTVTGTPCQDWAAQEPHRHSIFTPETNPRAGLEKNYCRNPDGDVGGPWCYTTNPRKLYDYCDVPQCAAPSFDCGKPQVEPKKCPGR

inhibition of proteinase 3, in words [1]: only weakly inhibits
Ki [2]: ~0.1 nM
Ki ([3]; read-out: Ki, leukocyte elastase): 0.37 nM
B1: Eglin C: member of the potato inhibitor 1 family from leech Hirudo medicinalis (protein, UniProt P01051 1-70, looked up)
Eglin C: TEFGSELKSFPEVVGKTVDQAREYFTLHYPQYDVYFLPEGSPVTLDLRYNRVRVFYNPGTNVVNHVPHVG
protection against leukocyte elastase-induced emphysema / pulmonary hemorrhage [4]: completely protected

inhibition of proteinase 3, in words [1]: not proteinase 3
inhibition of cathepsin G, in words [2]: not
Ki ([3]; read-out: Ki, elastase): 0.6 nM
B2: Antileukoproteinase (SLPI): member of the mucous proteinase inhibitor family (protein, UniProt P03973 26-132, looked up)
Antileukoproteinase: SGKSFKAGVCPPKKSAQCLRYKKPECQSDWQCPGKKRCCPDTCGIKCLDPVDTPNPTRRKPGKCPVTYGQCLMLNPPNFCEMDGQCKRDLKCCMGMCGKSCVSPVKA

Ki ([6]; read-out: Ki(1), chymotrypsin): 1000 nM
Ki ([6]; read-out: Ki(2), chymotrypsin): 300 nM
inhibition of trypsin, in words [7]: potent
B3: STI: Kunitz family inhibitor of trypsin from soybean (protein, UniProt P01070 25-205, looked up)
Trypsin inhibitor A: DFVLDNEGNPLENGGTYYILSDITAFGGIRAAPTGNERCPLTVVQSRNELDKGIGTIISSPYRIRFIAEGHPLSLKFDSFAVIMLCVGIPTEWSVVEDLPEGPAVKIGENKDAMDGWFRLERVSDDEFNNYKLVFCPQQAEDDKCGDIGISIDHDDGTRRLVVSKNKPLVVQFQKLDKESL
ET-1 degradation [5]: abolishes ET-1 degradation almost completely
inhibition of chymotrypsin, in words [6]: significantly weaker inhibitor
inhibition of neutrophil-induced ECM solubilization [8]: completely or nearly completely inhibit

inhibition of proteinase 3, in words [1]: not proteinase 3
inhibition of cathepsin G, in words [2]: inhibits
B4: Alpha-1-antichymotrypsin: serpin family proteinase inhibitor (protein, UniProt P01011 24-423, looked up)
Alpha-1-antichymotrypsin: HPNSPLDEENLTQENQDRGTHVDLGLASANVDFAFSLYKQLVLKAPDKNVIFSPLSISTALAFLSLGAHNTTLTEILKGLKFNLTETSEAEIHQSFQHLLRTLNQSSDELQLSMGNAMFVKEQLSLLDRFTEDAKRLYGSEAFATDFQDSAAAKKLINDYVKNGTRGKITDLIKDLDSQTMMVLVNYIFFKAKWEMPFDPQDTHQSRFYLSKKKWVMVPMMSLHHLTIPYFRDEELSCTVVELKYTGNASALFILPDQDKMEEVEAMLLPETLKRWRDSLEFREIGELYLPKFSISRDYNLNDILLQLGIEEAFTSKADLSGITGARNLAVSQVVHKAVLDVFEEGTEASAATAVKITLLSALVETRTIVRFNRPFLMIIVPTDTQNIFFMSKVTNPKQA

inhibition of proteinase 3, in words [1]: inhibits
inhibition of leukocyte elastase, in words [3]: inhibits
B5: Monocyte/neutrophil elastase inhibitor: a serpin family inhibitor (protein, UniProt P30740 1-379, looked up)
Leukocyte elastase inhibitor: MEQLSSANTRFALDLFLALSENNPAGNIFISPFSISSAMAMVFLGTRGNTAAQLSKTFHFNTVEEVHSRFQSLNADINKRGASYILKLANRLYGEKTYNFLPEFLVSTQKTYGADLASVDFQHASEDARKTINQWVKGQTEGKIPELLASGMVDNMTKLVLVNAIYFKGNWKDKFMKEATTNAPFRLNKKDRKTVKMMYQKKKFAYGYIEDLKCRVLELPYQGEELSMVILLPDDIEDESTGLKKIEEQLTLEKLHEWTKPENLDFIEVNVSLPRFKLEESYTLNSDLARLGVQDLFNSSKADLSGMSGARDIFISKIVHKSFVEVNEEGTEAAAATAGIATFCMLMPEENFTADHPFLFFIRHNSSGSILFLGRFSSP

Ki ([6]; read-out: Ki, chymotrypsin): 0.48 nM
inhibition of leukocyte elastase, in words [3]: not leukocyte elastase
inhibition of plasmin, in words [9]: potent inhibitor
Ki [7]: 0.01 nM
B6: placental bikunin: Kunitz family inhibitor; potent inhibitor of plasmin (protein, UniProt O43291 28-252, looked up)
Kunitz-type protease …: ADRERSIHDFCLVSKVVGRCRASMPRWWYNVTDGSCQLFVYGGCDGNSNNYLTKEECLKKCATVTENATGDLATSRNAADSSVPSAPRRQDSEDHSSDMFNYEEYCTANAVTGPCRASFPRWYFDVERNSCNNFIYGGCRGNKNSYRSEEACMLRCFRQQENPPLPLGSKVVVLAGLFVMVLILFLGASMVYLIRVARRNQERALRTVWSSGDDKEQLVKNTYVL
